Reference: patent US20040091945A1, “Peptides and methods of screening immunogenic peptide vaccines against Alzheimer's Disease” (priority 2002, published 2004)

The molecules below were run against T1, recombinant HLA A0201 (heavy chain produced in E. coli, with human beta2-microglobulin) (human) (assay: competition with iodinated [..] for recombinant HLA A0201; 1 uM unlabelled peptide). Conditions: not given.
T1 construct: also called rHLA A0201; HLA-A2.01

Molecule | binding result
GLMVGGVVI [Peptide 1, GLMVGGVVI, derived from Abeta 1-42] | binds
KLVFFAEDV [Peptide 2, KLVFFAEDV, derived from Abeta 1-42] | binds
IIGLMVGGV [Peptide 6, IIGLMVGGV, derived from Abeta 1-42] | binds
LMVGGVVIA (6) [Peptide 10, LMVGGVVIA, derived from Abeta 1-42] | binds

Each molecule was assayed against recombinant HLA A0201 (Homo sapiens, UniProt P04439, D140Y/D185E/D98H/E176V/E277Q/G131W/G231S/I119V/I121R/I166T/I218V/L300P/L318F/N151K/N90K/P208A/P217A/Q86G/Q94H/R138H/R169H/T345S) (assay: Competition with radiolabelled control peptide for binding to recombinant HLA A0201). Conditions: initial screening, 1 uM peptide, 1 nM rHLA A0201 (FIG. 1).
Method: FIG. 1: FIG. 1: Binding of radiolabelled peptide to 1 nM rHLA A0201 in absence or presence of 1 uM Abeta 1-42 or homologue-derived peptides (numbered 1-10; see Table 4). Binding is shown relative to measured binding without competition (maximal binding). The control peptide (ctrl): […] (SEQ ID NO. 1).
The binding (or lack thereof) of HLA-A2.01 epitopes derived from the Abeta homologue LV/EE (modifications at positions 17 and 18) was tested in an in vitro system to validate the computer predictions. Comparisons were made to predicted epitopes from the wild-type human Abeta 1-42 sequence. Recombinant HLA A0201 heavy chains were produced in E. coli and purified from inclusion bodies according to a standard procedure described elsewhere (Ostergaard Pederson, L. et al. 2001). Briefly, HLA 0201 heavy chains (1 nM were incubated for 4 hr. at room temperature with 1 nM iodinated control binding peptide ([…]-SEQ ID No. 1; this peptide has a score of 607.884 when submitted to the ILA Peptide Binding Prediction program at BIMAS), 1000 nM human β2M and graded doses (indicated in figures) of unlabelled peptide of interest (derived from Abeta or its homologue). Receptor bound and free peptide were separated by G25 spun column chromatography (Buus, S. et al. 1995) and counted in a gamma counter (Cobra). The peptides used in this study are listed in Table 4: […]

Molecule | ability to compete away the binding of the control radiolabeled peptide to recombinant HLA-A201 molecules
KEEFFAEDV | did not bind well
FRHDSGYEV | did not bind well
YEVHHQKEE | did not bind well
YEVHHQKLV | did not bind well
GLMVGGVVI | able to compete
LMVGGVVIA | able to compete
KLVFFAEDV | able to compete
AEFRHDSGY | did not bind well
HHQKEEFFA | did not bind well
IIGLMVGGV | able to compete
